Laboratory results as given in the DeepSol protein solubility set.

Experiment: soluble on expression in E. coli; label from the status in PepcDB or PDB records

Sequence	soluble on expression in E. coli
MGSDKIHHHHHHMTVLYKGSLKQNNDPFHVTLLSKEHIEQILFLQNVVVEGLEDKSRLQPLSQEEFQYILEGNGMMIGAFIKNELIAFRALLVPPIDDEHLGLDIGLPESELHRVIYQEISNVHPNCRGNGMQKILATVIMDELQKENGKYDYVCCTVAPFNIPSLKDKFSQGMEIAALKEKYGGSMRYVFVKELREDKEKDWTEIKSVPMNNAGGQQALLSEGYRGYEMEKVDEDFVVKFGR	not soluble
MENFEIWVEKYRPRTLDEVVGQDEVIQRLKGYVERKNIPHLLFSGPPGTGKTATAIALARDLFGENWRDNFIEMNASDERGIDVVRHKIKEFARTAPIGGAPFKIIFLDEADALTADAQAALRRTMEMYSKSCRFILSCNYVSRIIEPIQSRCAVFRFKPVPKEAMKKRLLEICEKEGVKITEDGLEALIYISGGDFRKAINALQGAAAIGEVVDADTIYQITATARPEEMTELIQTALKGNFMEARELLDRLMVEYGMSGEDIVAQLFREIISMPIKDSLKVQLIDKLGEVDFRLTEGANERIQLDAYLAYLSTLAKK	soluble
MRGSHHHHHHGMASMTGGQQMGRDLYDDDDKDHPFTMFYEKIQTPAYILEEDKLRKNCELLASVGEKSGAKVLLALKGFAFSGAMKIVGEYLKGCTCSGLWEAKFAKEYMDKEIHTYSPAFKEDEIGEIASLSHHIVFNSLAQFHKFQSKTQKNSLGLRCNVEFSLAPKELYNPCGRYSRLGIRAKDFENVDLNAIEGLHFHALCEESADALEAVLKVFEEKFGKWIGQMKWVNFGGGHHITKKGYDVEKLIALCKNFSDKYGVQVYLEPGEAVGWQTGNLVASVVDIIENEKQIAILDTSSEAHMPDTIIMPYTSEVLNARILATRENEKISDLKENEFAYLLTGNTCLAGDVMGEYAFDKKLKIGDKIVFLDQIHYTIVKNTTFNGIRLPNLMLLDHKNELQMIREFSYKDYSLRN	soluble
SGLRKMAQPSGLVEPCIVRVSYGNNVLNGLWLGDEVICPRHVIASDTTRVINYENEMSSVRLHNFSVSKNNVFLGVVSARYKGVNLVLKVNQVNPNTPEHKFKSIKAGESFNILACYEGCPGSVYGVNMRSQGTIKGSFIAGTCGSVGYVLENGILYFVYMHHLELGNGSHVGSNFEGEMYGGYEDQPSMQLEGTNVMSSDNVVAFLYAALINGERWFVTNTSMSLESYNTWAKTNSFTELSSTDAFSMLAAKTGQSVEKLLDSIVRLNKGFGGRTILSYGSLCDEFTPTEVIRQMYGVNLQ	soluble
MNDYAAMPSEDREVGALSLPPHSMEAEQSVLGGLMLENPAWDRIADVVSGEDFYRHEHRLIFRSIAKLINESRPADVITVQEDLQRNEELEAAGGFEYLITLAQNTPSAANIRRYAEIVRERSIMRQLAEVGTEIARSAYNPQGRDAGQLLDEAENKVFQIAESTAKSKQGFLEMPDLLKEVVQRIDMLYSRDNPDEVTGVPTGFIDLDKKTSGLQPGDLIIVAGRPSMGKTAFSINIAEHVAVEGRLPVAVFSMEMGGAQLVMRMLGSVGRLDQSVLKTGRLEDEHWGRLNEAVVKLSDAPVYIDETPGLTALELRARARRLARQFNNKLGLIVIDYLQLMAGSGRSDNRASELGEISRSLKALAKELQVPIIALSQLSRTVESRTDKRPMMSDLRESGAIEQDADLIMFMYRDEYYNQDSPMKGLAECIIGKHRNGPVGKIFLTWTGQFTKFDNAAYIPEEAKIED	not soluble
MSGNPGSSLSALRPTPPERGSFPLDHDGECTKYMQEYLKCMQLVQNENAMNCRLLAKDYLRCRMDHQLMDYDEWSHLGLPEDAPGNNGKTIKDATDNK	not soluble
MGSDKIHHHHHHMNKIVSFFILILVCSCSDRKEHIANILSMNSIDIKTNRINKDEVIARGAFPFEMIDSLFFLFNGDPSSGALVLCESNASELGHFLQKGNGFGECITPGYIGHCNDTIYVSERSRTRRMTYLLSNHNDSLQYKCLEDVSPKMNSEFYYQICRLQSGLFVGARLFGKEHLFTLLDESLDTLTTFARVPIDIEENANNKLAPFIGHLCIDDNTVYYASNDFSYMAAYDILSEKEIKPVFERMYISPIIQKSANGISLDKYKHLLGFGDIRVYQNYIFATYIGKPDITMDQENDISALVPTHLLVFNKDGVPIVKFKFPFKIRSFVFTKSKMYLLDVDCNIESVDLVELWKHLPD	not soluble
PISKMVTAHFVLIHTICHGAWIWHKLKPALERAGHKVTALDMAASGIDPRQIEQINSFDEYSEPLLTFLEKLPQGEKVIIVGEACAGLNIAIAADRYVDKIAAGVFHNSLLPDTVHSPSYTVEKLLESFPDWRDTEYFTFTNITGETITTMKLGFVLLRENLFTKCTDGEYELAKMVMRKGSLFQNVLAQRPKFTEKGYGSIKKVYIWTDQDKIFLPDFQRWQIANYKPDKVYQVQGGDHKLQLTKTEEVAHILQEVADAYA	soluble
